Reference: publication PMC3666333 (Nature communications, 2013)

Target: the molecule itself
Experiment: SAXS titration

B1: Gp4D (residues 241-566, 36-kDa), minimal fragment of the T7 gene 4 helicase that forms hexameric rings (domain or fragment, bacteriophage T7, UniProt P03692 241-566, looked up)
chain: CHLNGHDREIMEQVWNAGPWIPDGVVSALSLRERIREHLSSEESVGLLFSGCTGINDKTLGARGGEVIMVTSGSGMGKSTFVRQQALQWGTAMGKKVGLAMLEESVEETAEDLIGLHNRVRLRQSDSLKREIIENGKFDQWFDELFGNDTFHLYDSFAEAETDRLLAKLAYMRSGLGCDVIILDHISIVVSASGESDERKMIDNLMTKLKGFAKSTGVVLVVICHLKNPDKGKAHEEGRPVSITDLRGSGALRQLSDTIIALERNQQGDMPNLVLVRILKCRFTGDTGIAGYMEYNKETGWLEPSSYSGEEESHSESTDWSNDTDF
binding result: binds
